In PMC9482650, “Quantitative fragmentomics allow affinity mapping of interactomes” (Nature Communications, 2022):
Where a chain is given by its changes, count along the chain named.

T1: APBA1_2, Q02410
T1 sequence (Q02410 742-832, limits assumed, looked up): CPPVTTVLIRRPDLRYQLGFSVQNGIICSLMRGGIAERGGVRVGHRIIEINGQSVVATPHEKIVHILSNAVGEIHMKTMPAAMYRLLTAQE

T2: DLG3_1, Q92796
T2 sequence (Q92796 125-227, limits assumed, looked up): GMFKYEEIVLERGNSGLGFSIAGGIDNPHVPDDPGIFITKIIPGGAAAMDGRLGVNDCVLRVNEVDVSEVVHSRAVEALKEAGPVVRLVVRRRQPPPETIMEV

T3: GRIP1_5, Q9Y3R0
T3 sequence (Q9Y3R0 568-668, limits assumed, looked up): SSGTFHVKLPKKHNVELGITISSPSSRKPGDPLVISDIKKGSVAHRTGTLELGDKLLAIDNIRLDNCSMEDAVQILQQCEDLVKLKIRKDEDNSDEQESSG

T4: LIN7A, O14910
T4 sequence (O14910 103-200, limits assumed, looked up): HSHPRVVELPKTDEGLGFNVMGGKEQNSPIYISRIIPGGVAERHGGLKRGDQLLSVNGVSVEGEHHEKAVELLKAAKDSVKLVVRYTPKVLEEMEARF

T5: LIN7C, Q9NUP9
T5 sequence (Q9NUP9 88-185, limits assumed, looked up): T4 sequence (O14910 103-200, limits assumed, looked up) with D13E, V20I, V40I, E42D, K77Q, D78G, S79K, A96S

T6: PARD3B_1, Q8TEW8
T6 sequence (Q8TEW8 196-299, limits assumed, looked up): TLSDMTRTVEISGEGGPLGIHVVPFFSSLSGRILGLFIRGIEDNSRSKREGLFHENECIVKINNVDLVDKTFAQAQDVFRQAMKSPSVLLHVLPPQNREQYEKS

T7: RADIL, Q96JH8
T7 sequence (Q96JH8 971-1071, limits assumed, looked up): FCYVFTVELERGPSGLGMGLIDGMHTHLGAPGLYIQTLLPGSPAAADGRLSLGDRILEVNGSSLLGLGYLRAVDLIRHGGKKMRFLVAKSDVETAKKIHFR

T8: SHANK1, Q9Y566
T8 sequence (Q9Y566 658-767, limits assumed, looked up): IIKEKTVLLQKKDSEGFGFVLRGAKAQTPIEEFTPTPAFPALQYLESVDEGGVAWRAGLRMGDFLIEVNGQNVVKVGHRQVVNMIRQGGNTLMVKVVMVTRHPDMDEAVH

T9: SYNJ2BP, P57105
T9 sequence (P57105 8-110, limits assumed, looked up): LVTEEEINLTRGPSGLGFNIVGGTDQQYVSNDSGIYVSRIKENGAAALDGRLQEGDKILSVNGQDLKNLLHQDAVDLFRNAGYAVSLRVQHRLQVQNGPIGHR

T10: TJP3_3, O95049
T10 sequence (O95049 375-456, limits assumed, looked up): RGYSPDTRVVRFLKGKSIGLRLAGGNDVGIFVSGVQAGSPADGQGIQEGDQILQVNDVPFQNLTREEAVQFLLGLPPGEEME


The binders below were run against AHNAK1, Q09666 (assay: holdup assay). Conditions: plain residues with an end cap or a label only (N-terminal biotin on a linker: ado-ado).
Set-up: key: below the threshold = too weak to quantify, mostly under pKd 3.1 to 4

Sequence of AHNAK1, Q09666 (Q09666 4-100): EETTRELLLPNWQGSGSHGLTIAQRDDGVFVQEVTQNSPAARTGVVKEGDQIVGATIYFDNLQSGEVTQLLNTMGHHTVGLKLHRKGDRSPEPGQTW

pKd	Binder
below the threshold	IDESKKEWLI [CNTNAP2, Q9UHC6]

Each binder was assayed against T1, APBA1_2, Q02410 (assay: holdup assay). Conditions: plain residues with an end cap or a label only (N-terminal biotin on a linker: ado-ado).
Set-up: key: below the threshold = too weak to quantify, mostly under pKd 3.1 to 4

pKd	Binder
below the threshold	IDESKKEWLI [CNTNAP2, Q9UHC6]

Each binder was assayed against DLG1_1, Q12959 (assay: holdup assay). Conditions: plain residues with an end cap or a label only (N-terminal biotin on a linker: ado-ado).
Set-up: key: below the threshold = too weak to quantify, mostly under pKd 3.1 to 4

pKd	Binder
below the threshold	IDESKKEWLI [CNTNAP2, Q9UHC6]

What follows are binders tested against DLG2_2, Q15700 (assay: holdup assay). Conditions: plain residues with an end cap or a label only (N-terminal biotin on a linker: ado-ado).
Set-up: key: below the threshold = too weak to quantify, mostly under pKd 3.1 to 4

Sequence of DLG2_2, Q15700 (Q15700 189-283): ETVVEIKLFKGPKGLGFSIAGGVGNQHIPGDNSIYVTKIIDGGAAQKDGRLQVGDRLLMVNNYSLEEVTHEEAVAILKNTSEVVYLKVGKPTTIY

pKd	Binder
below the threshold	IDESKKEWLI [CNTNAP2, Q9UHC6]

Each binder was assayed against T2, DLG3_1, Q92796 (assay: holdup assay). Conditions: plain residues with an end cap or a label only (N-terminal biotin on a linker: ado-ado).
Set-up: key: below the threshold = too weak to quantify, mostly under pKd 3.1 to 4

pKd	Binder
below the threshold	IDESKKEWLI [CNTNAP2, Q9UHC6]

The binders below were run against DLG4_2, P78352 (assay: holdup assay). Conditions: plain residues with an end cap or a label only (N-terminal biotin on a linker: ado-ado).
Set-up: key: below the threshold = too weak to quantify, mostly under pKd 3.1 to 4

Sequence of DLG4_2, P78352 (P78352 155-259): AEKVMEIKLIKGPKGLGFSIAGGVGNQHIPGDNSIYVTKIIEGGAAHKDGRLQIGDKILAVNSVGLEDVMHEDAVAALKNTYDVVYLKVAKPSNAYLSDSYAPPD

pKd	Binder
below the threshold	IDESKKEWLI [CNTNAP2, Q9UHC6]

These binders were tested against GORASP1, Q9BQQ3 (assay: holdup assay). Conditions: plain residues with an end cap or a label only (N-terminal biotin on a linker: ado-ado).
Set-up: key: below the threshold = too weak to quantify, mostly under pKd 3.1 to 4

Sequence of GORASP1, Q9BQQ3 (Q9BQQ3 1-208): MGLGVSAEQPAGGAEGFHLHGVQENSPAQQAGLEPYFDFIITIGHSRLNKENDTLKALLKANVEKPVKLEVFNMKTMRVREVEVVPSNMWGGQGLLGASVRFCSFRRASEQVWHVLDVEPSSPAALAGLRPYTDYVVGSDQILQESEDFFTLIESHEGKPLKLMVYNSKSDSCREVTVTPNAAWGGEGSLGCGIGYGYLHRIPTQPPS

pKd	Binder
4.25	IDESKKEWLI [CNTNAP2, Q9UHC6]

These binders were tested against T3, GRIP1_5, Q9Y3R0 (assay: holdup assay). Conditions: plain residues with an end cap or a label only (N-terminal biotin on a linker: ado-ado).
Set-up: key: below the threshold = too weak to quantify, mostly under pKd 3.1 to 4

pKd	Binder
below the threshold	IDESKKEWLI [CNTNAP2, Q9UHC6]

Each binder was assayed against GRIP2_3, Q9C0E4 (assay: holdup assay). Conditions: plain residues with an end cap or a label only (N-terminal biotin on a linker: ado-ado).
Set-up: key: below the threshold = too weak to quantify, mostly under pKd 3.1 to 4

Sequence of GRIP2_3, Q9C0E4 (Q9C0E4 238-339): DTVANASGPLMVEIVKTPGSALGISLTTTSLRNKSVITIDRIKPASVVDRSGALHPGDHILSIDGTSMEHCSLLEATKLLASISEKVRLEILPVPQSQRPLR

pKd	Binder
below the threshold	IDESKKEWLI [CNTNAP2, Q9UHC6]

The binders below were run against HTRA2, O43464 (assay: holdup assay). Conditions: plain residues with an end cap or a label only (N-terminal biotin on a linker: ado-ado).
Set-up: key: below the threshold = too weak to quantify, mostly under pKd 3.1 to 4

Sequence of HTRA2, O43464 (O43464 355-458): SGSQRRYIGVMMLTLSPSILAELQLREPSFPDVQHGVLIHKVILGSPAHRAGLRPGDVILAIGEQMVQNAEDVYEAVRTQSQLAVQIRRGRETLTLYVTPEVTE

pKd	Binder
3.49	IDESKKEWLI [CNTNAP2, Q9UHC6]

The binders below were run against Inadl_1, Q8NI35 (assay: holdup assay). Conditions: plain residues with an end cap or a label only (N-terminal biotin on a linker: ado-ado).
Set-up: key: below the threshold = too weak to quantify, mostly under pKd 3.1 to 4

Sequence of Inadl_1, Q8NI35 (Q8NI35 113-229): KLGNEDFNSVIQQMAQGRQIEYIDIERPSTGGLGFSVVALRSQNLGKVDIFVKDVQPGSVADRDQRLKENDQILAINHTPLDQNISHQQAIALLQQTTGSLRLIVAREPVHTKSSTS

pKd	Binder
3.93	IDESKKEWLI [CNTNAP2, Q9UHC6]

What follows are binders tested against Inadl_2, Q8NI35 (assay: holdup assay). Conditions: plain residues with an end cap or a label only (N-terminal biotin on a linker: ado-ado).
Set-up: key: below the threshold = too weak to quantify, mostly under pKd 3.1 to 4

Sequence of Inadl_2, Q8NI35 (Q8NI35 238-335): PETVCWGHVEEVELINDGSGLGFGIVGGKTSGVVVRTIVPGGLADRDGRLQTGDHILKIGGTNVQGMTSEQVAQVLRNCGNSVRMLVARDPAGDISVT

pKd	Binder
4.67	IDESKKEWLI [CNTNAP2, Q9UHC6]

What follows are binders tested against Inadl_9, Q8NI35 (assay: holdup assay). Conditions: plain residues with an end cap or a label only (N-terminal biotin on a linker: ado-ado).
Set-up: key: below the threshold = too weak to quantify, mostly under pKd 3.1 to 4

Sequence of Inadl_9, Q8NI35 (Q8NI35 1530-1615): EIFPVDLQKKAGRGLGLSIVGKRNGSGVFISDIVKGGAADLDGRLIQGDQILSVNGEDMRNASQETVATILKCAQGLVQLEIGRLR

pKd	Binder
below the threshold	IDESKKEWLI [CNTNAP2, Q9UHC6]

The binders below were run against T4, LIN7A, O14910 (assay: holdup assay). Conditions: plain residues with an end cap or a label only (N-terminal biotin on a linker: ado-ado).
Set-up: key: below the threshold = too weak to quantify, mostly under pKd 3.1 to 4

pKd	Binder
3.72	IDESKKEWLI [CNTNAP2, Q9UHC6]

What follows are binders tested against T5, LIN7C, Q9NUP9 (assay: holdup assay). Conditions: plain residues with an end cap or a label only (N-terminal biotin on a linker: ado-ado).
Set-up: key: below the threshold = too weak to quantify, mostly under pKd 3.1 to 4

pKd	Binder
below the threshold	IDESKKEWLI [CNTNAP2, Q9UHC6]

The binders below were run against MAGI1_1, Q96QZ7 (assay: holdup assay). Conditions: plain residues with an end cap or a label only (N-terminal biotin on a linker: ado-ado).
Set-up: key: below the threshold = too weak to quantify, mostly under pKd 3.1 to 4

Sequence of MAGI1_1, Q96QZ7 (Q96QZ7 1-106): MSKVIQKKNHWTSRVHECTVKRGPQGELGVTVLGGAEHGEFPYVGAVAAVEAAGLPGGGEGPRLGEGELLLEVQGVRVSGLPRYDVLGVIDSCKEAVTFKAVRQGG

pKd	Binder
below the threshold	IDESKKEWLI [CNTNAP2, Q9UHC6]

The binders below were run against MAGI1_2, Q96QZ7 (assay: holdup assay). Conditions: plain residues with an end cap or a label only (N-terminal biotin on a linker: ado-ado).
Set-up: key: below the threshold = too weak to quantify, mostly under pKd 3.1 to 4

Sequence of MAGI1_2, Q96QZ7 (Q96QZ7 456-580): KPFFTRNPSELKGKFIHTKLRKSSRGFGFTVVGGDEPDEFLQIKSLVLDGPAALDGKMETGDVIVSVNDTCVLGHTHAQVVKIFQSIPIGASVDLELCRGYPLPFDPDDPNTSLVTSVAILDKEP

pKd	Binder
below the threshold	IDESKKEWLI [CNTNAP2, Q9UHC6]

What follows are binders tested against MAGI2_5, Q86UL8 (assay: holdup assay). Conditions: plain residues with an end cap or a label only (N-terminal biotin on a linker: ado-ado).
Set-up: key: below the threshold = too weak to quantify, mostly under pKd 3.1 to 4

Sequence of MAGI2_5, Q86UL8 (Q86UL8 915-1017): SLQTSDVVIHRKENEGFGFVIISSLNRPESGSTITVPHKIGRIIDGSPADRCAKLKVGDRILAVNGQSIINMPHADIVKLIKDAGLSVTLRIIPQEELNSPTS

pKd	Binder
below the threshold	IDESKKEWLI [CNTNAP2, Q9UHC6]

What follows are binders tested against MAST1, Q9Y2H9 (assay: holdup assay). Conditions: plain residues with an end cap or a label only (N-terminal biotin on a linker: ado-ado).
Set-up: key: below the threshold = too weak to quantify, mostly under pKd 3.1 to 4

Sequence of MAST1, Q9Y2H9 (Q9Y2H9 962-1065): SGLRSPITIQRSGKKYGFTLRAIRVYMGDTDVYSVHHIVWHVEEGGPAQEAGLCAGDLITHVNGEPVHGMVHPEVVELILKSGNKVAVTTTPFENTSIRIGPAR

pKd	Binder
below the threshold	IDESKKEWLI [CNTNAP2, Q9UHC6]

What follows are binders tested against NHERF2_2, Q15599 (assay: holdup assay). Conditions: plain residues with an end cap or a label only (N-terminal biotin on a linker: ado-ado).
Set-up: key: below the threshold = too weak to quantify, mostly under pKd 3.1 to 4

Sequence of NHERF2_2, Q15599 (Q15599 142-238): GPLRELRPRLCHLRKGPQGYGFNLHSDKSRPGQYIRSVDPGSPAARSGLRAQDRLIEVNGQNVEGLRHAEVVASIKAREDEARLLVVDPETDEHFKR

pKd	Binder
below the threshold	IDESKKEWLI [CNTNAP2, Q9UHC6]

What follows are binders tested against T6, PARD3B_1, Q8TEW8 (assay: holdup assay). Conditions: plain residues with an end cap or a label only (N-terminal biotin on a linker: ado-ado).
Set-up: key: below the threshold = too weak to quantify, mostly under pKd 3.1 to 4

pKd	Binder
4.63	IDESKKEWLI [CNTNAP2, Q9UHC6]

These binders were tested against PARD3_3, Q8TEW0 (assay: holdup assay). Conditions: plain residues with an end cap or a label only (N-terminal biotin on a linker: ado-ado).
Set-up: key: below the threshold = too weak to quantify, mostly under pKd 3.1 to 4

Sequence of PARD3_3, Q8TEW0 (Q8TEW0 582-685): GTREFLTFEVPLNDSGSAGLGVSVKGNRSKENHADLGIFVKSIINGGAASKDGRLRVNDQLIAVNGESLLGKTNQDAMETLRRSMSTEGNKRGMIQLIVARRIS

pKd	Binder
5.28	IDESKKEWLI [CNTNAP2, Q9UHC6]

Each binder was assayed against PTPN3, P26045 (assay: holdup assay). Conditions: plain residues with an end cap or a label only (N-terminal biotin on a linker: ado-ado).
Set-up: key: below the threshold = too weak to quantify, mostly under pKd 3.1 to 4

Sequence of PTPN3, P26045 (P26045 505-587): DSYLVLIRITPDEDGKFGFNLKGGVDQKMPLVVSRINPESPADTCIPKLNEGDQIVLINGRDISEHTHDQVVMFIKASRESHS

pKd	Binder
4.07	IDESKKEWLI [CNTNAP2, Q9UHC6]

Each binder was assayed against T7, RADIL, Q96JH8 (assay: holdup assay). Conditions: plain residues with an end cap or a label only (N-terminal biotin on a linker: ado-ado).
Set-up: key: below the threshold = too weak to quantify, mostly under pKd 3.1 to 4

pKd	Binder
3.76	IDESKKEWLI [CNTNAP2, Q9UHC6]

What follows are binders tested against T8, SHANK1, Q9Y566 (assay: holdup assay). Conditions: plain residues with an end cap or a label only (N-terminal biotin on a linker: ado-ado).
Set-up: key: below the threshold = too weak to quantify, mostly under pKd 3.1 to 4

pKd	Binder
below the threshold	IDESKKEWLI [CNTNAP2, Q9UHC6]

The binders below were run against T9, SYNJ2BP, P57105 (assay: holdup assay). Conditions: plain residues with an end cap or a label only (N-terminal biotin on a linker: ado-ado).
Set-up: key: below the threshold = too weak to quantify, mostly under pKd 3.1 to 4

pKd	Binder
below the threshold	IDESKKEWLI [CNTNAP2, Q9UHC6]

Each binder was assayed against T10, TJP3_3, O95049 (assay: holdup assay). Conditions: plain residues with an end cap or a label only (N-terminal biotin on a linker: ado-ado).
Set-up: key: below the threshold = too weak to quantify, mostly under pKd 3.1 to 4

pKd	Binder
below the threshold	IDESKKEWLI [CNTNAP2, Q9UHC6]
